Test results reported in article PMC12221286, “Endogenous formation of phosphatidylhomoserine in Escherichia coli through phosphatidylserine synthase” (The Journal of Biological Chemistry, 2025).

Substrate: N[C@@H](CCO)C(=O)O
Experiment: purified protein
Type: biochemical, Escherichia coli
Conditions: 0.3 mM 18:1/18:1 CDP-DAG, 10 mM MgCl2, 0.1 M KCl, 2.4 mM Triton X-100, pH 7.5, 25 °C, apparent constants

B1: EcPssA (E. coli phosphatidylserine synthase A, PssA) (Escherichia coli K-12) (protein)
chain: MLSKFKRNKHQQHLAQLPKISQSVDDVDFFYAPADFRETLLEKIASAKQRICIVALYLEQDDGGKGILNALYEAKRQRPELDVRVLVDWHRAQRGRIGAAASNTNADWYCRMAQENPGVDVPVYGVPINTREALGVLHFKGFIIDDSVLYSGASLNDVYLHQHDKYRYDRYHLIRNRKMSDIMFEWVTQNIMNGRGVNRLDDVNRPKSPEIKNDIRLFRQELRDAAYHFQGDADNDQLSVTPLVGLGKSSLLNKTIFHLMPCAEQKLTICTPYFNLPAILVRNIIQLLREGKKVEIIVGDKTANDFYIPEDEPFKIIGALPYLYEINLRRFLSRLQYYVNTDQLVVRLWKDDDNTYHLKGMWVDDKWMLITGNNLNPRAWRLDLENAILIHDPQLELAPQREKELELIREHTTIVKHYRDLQSIADYPVKVRKLIRRLRRIRIDRLISRIL
notes: purified EcPssA in Tris/NaCl/glycerol/octyl glucoside
- Km: 4.6 ± 0.02 mM
- kcat: 2.86 ± 0.04 s⁻¹
